Molecular target: GST tagged constitutively activated K-Ras4B (GST-K-RasV12) (UniProt P01116-2 1-188, V12)
Experiment: pull-down

fold selectivity for K-Ras over H-Ras: ~7 fold
B1: BRI3BP domain identified in the two-hybrid assay, overexpressed in mammalian cells (domain or fragment, UniProt Q8BXV2 85-253, looked up)
chain: RFVQGVDMFLETLWKVWMELLEVLGLDVSNLSQYFSPASVSNSPTRALVLVGVVLLAYWFLSLTLGFTFSLLHLVFGRFFWLVRVILFSMSCVYILHKYEGEPEHAVLPLCVVVAIYFMTGPMGYWRGSPGGLCSPSVEEKLEHLENQVRLLNIRLNRVLENLDRSKDK
